Target: GG (GST-ICS linker-GFP model substrate for ICE) [GST: P08515]
Test: cell-based or functional assay

IC50 of inhibition of the cleavage of GG by ICE: 50 to 100 µM
Binder: KARKEAELAAATAEQ [LEPB]

Source: patent US20060275823A1
